Assay results taken from the Human Domainome abundance scans (Beltran et al. 2025).
± gives the uncertainty stated by the source.

B1: Protein maelstrom homolog, residues 3 to 71; numbered along this chain, Q96JY0 (parent)
chain: NRKASRNAYYFFVQEKIPELRRRGLPVARVADAIPYCSSDWALLREEEKEKYAEMAREWRAAQGKDPGP

Variants of: B1
Experiment: abundance fitness (aPCA) (normalised: wild type 0, dead -1); higher = more abundant; growth selection in yeast, the domain comes from the species named
Settings: Homo sapiens

Row | Variant | abundance fitness
1 | E58F | -0.319 ± 0.19
2 | F11A | -0.265 ± 0.075
3 | E58D | -0.09 ± 0.26
4 | L44C | -0.343 ± 0.17
5 | A53W | -0.097 ± 0.057
6 | S38Y | -0.06 ± 0.21
7 | P67M | -0.12 ± 0.09
8 | G68D | -0.083 ± 0.087
9 | I34H | -0.307 ± 0.25
10 | I17P | -0.755 ± 0.15
11 | W41N | -0.706 ± 0.19
12 | E58R | -0.189 ± 0.057
13 | A31C | 0.085 ± 0.09
14 | P18L | -0.606 ± 0.1
15 | D32Q | -0.616 ± 0.23
16 | R2P | 0.06 ± 0.085
17 | R57G | -0.159 ± 0.068
18 | A33E | -0.725 ± 0.2
19 | S5K | -0.206 ± 0.28
20 | P67K | -0.069 ± 0.14
21 | F12I | -0.97 ± 0.23
22 | F11P | -0.776 ± 0.16
23 | A56G | -0.302 ± 0.045
24 | S39E | -0.073 ± 0.097

Row | Variant | abundance fitness
25 | A4R | -0.09 ± 0.057
26 | R22T | -0.242 ± 0.087
27 | D66E | -0.003 ± 0.06
28 | F12L | -0.713 ± 0.072
29 | E46H | -0.101 ± 0.18
30 | N7P | -0.285 ± 0.13
31 | E54P | -0.346 ± 0.14
32 | Y9G | -0.61 ± 0.074
33 | C37A | -0.19 ± 0.075
34 | R29H | -0.113 ± 0.13
35 | P69R | 0.397 ± 0.18
36 | P69H | -0.049 ± 0.17
37 | A4V | -0.001 ± 0.085
38 | S39M | 0.129 ± 0.074
39 | P35K | 0.049 ± 0.079
40 | A42W | -0.236 ± 0.062
41 | F12R | -0.797 ± 0.061
42 | K16C | -0.428 ± 0.25
43 | R22V | -0.738 ± 0.12
44 | A42E | 0.005 ± 0.075
45 | L20M | -0.334 ± 0.15
46 | G68T | -0.186 ± 0.15
47 | E54L | -0.13 ± 0.058
48 | I17R | -0.501 ± 0.062

Row | Variant | abundance fitness
49 | N7T | 0 ± 0.12
50 | A8G | -0.057 ± 0.074
51 | I17W | -0.264 ± 0.07
52 | E19H | -0.54 ± 0.14
53 | C37R | -0.731 ± 0.072
54 | R2V | -0.288 ± 0.071
55 | F11S | -0.526 ± 0.077
56 | L43D | 0.277 ± 0.1
57 | K65N | -0.116 ± 0.14
58 | P69Y | 0.162 ± 0.36
59 | A53R | 0.035 ± 0.045
60 | L25F | -0.229 ± 0.35
61 | A8T | -0.325 ± 0.11
62 | R29F | -0.478 ± 0.26
63 | A42Q | -0.147 ± 0.071
64 | S5D | 0.12 ± 0.17
65 | S5C | -0.655 ± 0.34
66 | L20A | -1.1 ± 0.12
67 | A8V | -0.796 ± 0.12
68 | V30F | -0.226 ± 0.14
69 | P35Q | -0.451 ± 0.098
70 | P67L | 0.022 ± 0.056
71 | E15H | 0.023 ± 0.28
72 | I17K | -0.687 ± 0.11

Row | Variant | abundance fitness
73 | F11T | -0.38 ± 0.18
74 | A4T | 0.049 ± 0.17
75 | Y9P | -0.338 ± 0.08
76 | L43A | 0.106 ± 0.073
77 | L44K | -0.568 ± 0.28
78 | A42S | 0 ± 0.067
79 | A28M | -0.319 ± 0.21
80 | D32V | -0.952 ± 0.12
81 | E58W | -0.523 ± 0.12
82 | I34Q | -0.25 ± 0.092
83 | K65Y | -0.109 ± 0.17
84 | A42C | -0.177 ± 0.07
85 | P18N | -0.532 ± 0.15
86 | R22P | -0.763 ± 0.13
87 | I17A | -0.467 ± 0.084
88 | K16R | 0.031 ± 0.082
89 | I34R | -0.148 ± 0.039
90 | G64Y | 0.181 ± 0.12
91 | D40V | -0.036 ± 0.2
92 | K65G | -0.048 ± 0.046
93 | I34D | 0.113 ± 0.2
94 | A28S | -0.324 ± 0.31
95 | K65P | -0.134 ± 0.092
96 | P35Y | -1.07 ± 0.45

Row | Variant | abundance fitness
97 | W41R | -0.572 ± 0.054
98 | D66Q | 0.07 ± 0.07
99 | E19K | -0.686 ± 0.11
100 | Q14W | -0.014 ± 0.072
101 | Y10D | 0.185 ± 0.18
102 | P67C | -0.417 ± 0.18
103 | I34C | -0.203 ± 0.14
104 | A53C | 0.043 ± 0.1
105 | N7Q | -0.147 ± 0.081
106 | L44P | -0.751 ± 0.14
107 | V30D | -0.518 ± 0.17
108 | I17Y | -0.818 ± 0.21
109 | G64C | 0.082 ± 0.082
110 | Q14H | -0.618 ± 0.19
111 | P18C | -0.358 ± 0.1
112 | L44E | -0.421 ± 0.14
113 | A53D | -0.082 ± 0.24
114 | A31E | 0.131 ± 0.093
115 | L44R | -0.802 ± 0.091
116 | E58L | -0.165 ± 0.071
117 | R22K | 0.162 ± 0.1
118 | R6Q | -0.447 ± 0.24
119 | K65A | -0.206 ± 0.071
120 | R45N | 0.108 ± 0.12

Row | Variant | abundance fitness
121 | L43M | -0.098 ± 0.078
122 | R57V | -0.093 ± 0.099
123 | Q14I | -0.228 ± 0.077
124 | I17M | -0.241 ± 0.075
125 | P35A | -0.435 ± 0.075
126 | G68F | -0.119 ± 0.14
127 | V27I | -0.319 ± 0.16
128 | V30A | -0.286 ± 0.059
129 | A53Q | -0.194 ± 0.11
130 | D66R | -0.02 ± 0.061
131 | R2F | -0.095 ± 0.16
132 | A33G | -0.098 ± 0.06
133 | I34W | -0.04 ± 0.062
134 | R2Y | 0.078 ± 0.12
135 | G68R | -0.079 ± 0.057
136 | D32H | -0.535 ± 0.37
137 | E58P | -0.521 ± 0.16
138 | R57Q | -0.104 ± 0.1
139 | V27G | -0.594 ± 0.078
140 | L43R | 0.158 ± 0.044
141 | D32M | -0.835 ± 0.17
142 | E54F | -0.396 ± 0.12
143 | S38V | 0.073 ± 0.28
144 | P35W | -0.756 ± 0.098

Row | Variant | abundance fitness
145 | E15D | -0.241 ± 0.23
146 | G64S | 0.035 ± 0.049
147 | P18R | -0.526 ± 0.057
148 | A4L | 0.048 ± 0.08
149 | P67V | 0.091 ± 0.073
150 | A33W | -0.665 ± 0.17
151 | R45G | -0.111 ± 0.056
152 | I34E | -0.113 ± 0.094
153 | P26R | -0.431 ± 0.25
154 | A8C | -0.269 ± 0.24
155 | W41F | -0.284 ± 0.17
156 | L43Q | 0.151 ± 0.074
157 | R6S | -0.228 ± 0.15
158 | Y10R | -0.358 ± 0.066
159 | E54V | -0.068 ± 0.054
160 | E58Q | -0.17 ± 0.1
161 | A56I | -0.539 ± 0.23
162 | F12N | -0.624 ± 0.18
163 | V30S | -0.238 ± 0.082
164 | F11C | -0.313 ± 0.22
165 | P67T | -0.155 ± 0.078
166 | N7W | -0.257 ± 0.068
167 | S38Q | 0.155 ± 0.24
